Experimental data as given in PMC2831308.

Tested on: carboxyltransferase (CT) alpha2beta2, wild-type (Escherichia coli)
Experiment: EMSA

Sequence: CT alpha transcript, 213 nt upstream of AUG to gene end
- Kd: 145 nM
